T1: 6×His-Livin α
T1 chain: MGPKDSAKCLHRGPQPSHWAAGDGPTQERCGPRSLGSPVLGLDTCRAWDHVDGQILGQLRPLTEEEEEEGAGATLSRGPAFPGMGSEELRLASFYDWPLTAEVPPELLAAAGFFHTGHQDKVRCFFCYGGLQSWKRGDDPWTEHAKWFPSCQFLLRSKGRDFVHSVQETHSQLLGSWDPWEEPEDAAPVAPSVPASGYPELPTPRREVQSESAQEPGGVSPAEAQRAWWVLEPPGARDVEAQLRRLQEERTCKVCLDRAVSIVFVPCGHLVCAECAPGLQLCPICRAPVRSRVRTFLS

T2: 6×His-Livin β
T2 chain: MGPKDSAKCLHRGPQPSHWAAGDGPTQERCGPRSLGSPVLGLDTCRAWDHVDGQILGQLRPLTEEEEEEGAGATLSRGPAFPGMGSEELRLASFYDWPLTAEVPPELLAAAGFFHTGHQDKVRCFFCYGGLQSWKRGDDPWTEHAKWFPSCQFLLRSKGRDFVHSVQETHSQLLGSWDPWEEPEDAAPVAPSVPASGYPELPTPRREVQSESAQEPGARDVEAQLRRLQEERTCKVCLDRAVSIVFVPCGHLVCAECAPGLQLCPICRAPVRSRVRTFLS

T3: Livin β
T3 chain: T2 chain

T4: Livin α
T4 chain: T1 chain

B1: caspase 7 (protein)
chain: AKPDRSSFVPSLFSKKKKNVTMRSIKTTRDRVPTYQYNMNFEKLGKCIIINNKNFDKVTGMGVRNGTDKDAEALFKCFRSLGFDVIVYNDCSCAKMQDLLKKASEEDHTNAACFACILLSHGEENVIYGKDGVTPIKDLTAHFRGDRCKTLLEKPKLFFIQACRGTELDDGIQADSGPINDTDANPRYKIPVEADFLFAYSTVPGYYSWRSPGRGSWFVQALCSILEEHGKDLEIMQILTRVNDRVARHFESQSDDPHFHEKKQIPCVVSMLTKELYFSQ
B2: caspase 9 (protein)
chain: MDEADRRLLRRCRLRLVEELQVDQLWDALLSRELFRPHMIEDIQRAGSGSRRDQARQLIIDLETRGSQALPLFISCLEDTGQDMLASFLRTNRQAAKLSKPTLENLTPVVLRPEIRKPEVLRPETPRPVDIGSGGFGDVGALESLRGNADLAYILSMEPCGHCLIINNVNFCRESGLRTRTGSNIDCEKLRRRFSSLHFMVEVKGDLTAKKMVLALLELAQQDHGALDCCVVVILSHGCQASHLQFPGAVYGTDGCPVSVEKIVNIFNGTSCPSLGGKPKLFFIQACGGEQKDHGFEVASTSPEDESPGSNPEPDATPFQEGLRTFDQLDAISSLPTPSDIFVSYSTFPGFVSWRDPKSGSWYVETLDDIFEQWAHSEDLQSLLLRVANAVSVKGIYKQMPGCFNFLRKKLFFKTS
B3: caspase 8 (protein)
chain: SESQTLDKVYQMKSKPRGYCLIINNHNFAKAREKVPKLHSIRDRNGTHLDAGALTTTFEELHFEIKPHDDCTVEQIYEILKIYQLMDHSNMDCFICCILSHGDKGIIYGTDGQEAPIYELTSQFTGLKCPSLAGKPKVFFIQACQGDNYQKGIPVETDSEEQPYLEMDLSSPQTRYIPDEADFLLGMATVNNCVSYRNPAEGTWYIQSLCQSLRERCPRGDDILTILTEVNYEVSNKDDKKNMGKQMPQPTFTLRKKLVFPSD
B4: caspase 6 (protein)
chain: AFYKREMFDPAEKYKMDHRRRGIALIFNHERFFWHLTLPERRGTCADRDNLTRRFSDLGFEVKCFNDLKAEELLLKIHEVSTVSHADADCFVCVFLSHGEGNHIYAYDAKIEIQTLTGLFKGDKCHSLVGKPKIFIIQACRGNQHDVPVIPLDVVDNQTEKLDTNITEVDAASVYTLPAGADFLMCYSVAEGYYSHRETVNGSWYIQDLCEMLGKYGSSLEFTELLTLVNRKVSQRRVDFCKDPSAIGKKQVPCFASMLTKKLHFFPKSN
B5: caspase 3 (protein)
chain: SGISLDNSYKMDYPEMGLCIIINNKNFHKSTGMTSRSGTDVDAANLRETFRNLKYEVRNKNDLTREEIVELMRDVSKEDHSKRSSFVCVLLSHGEEGIIFGTNGPVDLKKITNFFRGDRCRSLTGKPKLFIIQACRGTELDCGIETDSGVDDDMACHKIPVEADFLYAYSTAPGYYSWRNSKDGSWFIQSLCAMLKQYADKLEFMHILTRVNRKVATEFESFSFDATFHAKKQIPCIVSMLTKELYFYH

Biological target: T1, 6×His-Livin α

Protein | in vitro cleavage, Western blot with anti-Livin antibody
B1 | In contrast to the marked efficiency of caspase 7, caspase 6 was not able to cleave Livin at low concentrations (FIG. 4b)
B2 | incubation with high concentrations of caspase 9 resulted in a weak cleavage, suggesting that caspase 9 might cleave Livin with a very low affinity
B3 | Treatment of recombinant Livin α and β with caspase 8 had no effect even when 90 units of this enzyme were used
B4 | caspase 6 was not able to cleave Livin at low concentrations (FIG. 4b)

Biological target: T2, 6×His-Livin β

Protein | in vitro cleavage, Western blot with anti-Livin antibody
B1 | The most efficient cleavage was observed when caspase 7 was used, resulting in the complete cleavage of the recombinant Livin β
B2 | incubation with high concentrations of caspase 9 resulted in a weak cleavage, suggesting that caspase 9 might cleave Livin with a very low affinity
B3 | Treatment of recombinant Livin α and β with caspase 8 had no effect even when 90 units of this enzyme were used
B5 | effector caspases 3, 7, and relatively high concentrations of caspase 6, but not the initiator caspases 8 and 9, cleaved Livin β
B4 | relatively high concentrations of caspase 6 ... cleaved Livin β

Biological target: T3, Livin β

Protein | in vitro cleavage of in vitro translated protein, Western blot
B1 | underwent cleavage similar to the wild-type protein by caspase 3 and 7
B5 | underwent cleavage similar to the wild-type protein by caspase 3 and 7
B4 | it did not cleave any of the Livin isoforms that were translated in eukaryotic in vitro system

Biological target: T4, Livin α

Protein | in vitro cleavage of in vitro translated protein, Western blot
B1 | underwent cleavage similar to the wild-type protein by caspase 3 and 7
B5 | underwent cleavage similar to the wild-type protein by caspase 3 and 7
B4 | it did not cleave any of the Livin isoforms that were translated in eukaryotic in vitro system
